The record followed here is patent US20240301022A1 (published 2024).

The assay has as its target human β1-adrenergic receptor (human, UniProt P08588 1-477). Briefly: radioligand saturation binding, transfected CHO-K1.

Sequence of human β1-adrenergic receptor (P08588 whole entry): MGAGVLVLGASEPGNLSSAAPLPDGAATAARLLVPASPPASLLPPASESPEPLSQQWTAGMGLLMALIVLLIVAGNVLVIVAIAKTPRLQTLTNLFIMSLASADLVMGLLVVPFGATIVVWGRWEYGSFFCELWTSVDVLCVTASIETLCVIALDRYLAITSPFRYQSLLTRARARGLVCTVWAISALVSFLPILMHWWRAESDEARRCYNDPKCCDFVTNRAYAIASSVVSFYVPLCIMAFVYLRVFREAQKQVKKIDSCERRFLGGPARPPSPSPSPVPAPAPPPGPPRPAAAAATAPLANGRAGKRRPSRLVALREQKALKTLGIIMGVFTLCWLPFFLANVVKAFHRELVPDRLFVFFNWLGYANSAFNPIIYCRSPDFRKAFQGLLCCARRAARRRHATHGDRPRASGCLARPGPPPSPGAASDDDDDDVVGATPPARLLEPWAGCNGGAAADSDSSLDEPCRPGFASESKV

B1: recombinant human zinc-α2-glycoprotein (ZAG) (ligand)
chain: QENQDGRYSLTYIYTGLSKHVEDVPAFQALGSLNDLQFFRYNSKDRKSQPMGLWRQVEGMEDWKEDSQLQKAREDMETLKDIVEYYNDSNGSHVLQGRFGCEIENNRSSGAFWKYYYDGKDYIEFNKEIPAWVPFDPAAQITKQKWEAEPVYVQRAKAYLEEECPATLRKYLKYSKNILDRQDPPSVVVTSHQAPGEKKKLKCLAYDFYPGKIDVHWTRAGQVQEPELRGDVLHNGNGTYQSWVVVAVPPQDTAPYSCHVQHSSLAQPLVVPWEAS
modifications: 125I label (iodo bead labelling) in the membrane binding studies; labelled residues not stated
B1: binding was characterised by a dissociation constant (Kd) of 493 nM.
